# Measured values: US20220112288A1 (published 2022)
# Changes are numbered by the printed parent chain.
# B1: 75110_04G16A (antibody, V domains shown)
# VH: QVQLQESGPGLVKPSQTLSLTCTVSGDSISSGYYYWSWIRQHPGKGLEWIGYISYSGSTYYNPSLKSRLTISVNTSKNQFSLKLSSLTAADTAVYYCARDRPSNFDAFDIWGQGTMVTVSS
# VL: EIVLTQSPGTLSLSPGERATLSCRASQSVGSTYLAWYQQKPGQAPRLLIYGAFSRATGIPDRFSGSGSGTDFTLTISRLEPEDFAVYYCQQYGSSPLTFGPGTKVDIK
# notes: Tested as non-clonal AlivaMab Mouse hybridoma supernatant (chimeric: human variable regions and human kappa, mouse Fc, captured by anti-mouse IgG Fc sensors); also called ADS75110 non-clonal supernatant 04G16A
# B2: 75110_08H11A (antibody, V domains shown)
# VH: EVQLVESGGGLVQPGGSLRLSCAASGFTFSSYDMHWVRQATGKGLEWVSTIGTAGDTYYPGSVKGRFTISRENAKNSLYLQMNSLRAGDTAVYYCARGGYSYYGMDVWGQGTTVTVSS
# VL: B1 VL with R24G, G30S, F53S, Y92F, L97F
# notes: Tested as non-clonal AlivaMab Mouse hybridoma supernatant (human variable regions and human kappa, mouse Fc); also called ADS75110 non-clonal supernatant 08H11A
# B3: 75110_01G11A (antibody, V domains shown)
# VH: B2 VH with K75R, Y79F, Y100D, S101Y
# VL: B1 VL with S14F, S28N, V29T, G30Y, T32S, F53S, S54N, Y92H, S94T, L97F
# notes: Tested as non-clonal AlivaMab Mouse hybridoma supernatant (human variable regions and human kappa, mouse Fc); also called ADS75110 non-clonal supernatant 01G11A
# B4: 75110_01J17A (antibody, V domains shown)
# VH: B2 VH with A40G, G55D, K75E, Y100D, S101Y
# VL: B1 VL with T5A, G30Y, S31I, T32S, F53S, S77T, Y92F, L97F, I107F
# notes: Tested as non-clonal AlivaMab Mouse hybridoma supernatant (human variable regions and human kappa, mouse Fc); also called ADS75110 non-clonal supernatant 01J17A
# B5: 75110_01K10A (antibody, V domains shown)
# VH: B2 VH with G10A, S30R, S31N, Y100D, S101Y
# VL: B1 VL with G9D, V29L, G30S, T32V, F53S, S66T, L97F
# notes: Tested as non-clonal AlivaMab Mouse hybridoma supernatant (human variable regions and human kappa, mouse Fc); also called ADS75110 non-clonal supernatant 01K10A
# B6: 75110_10L22A (antibody, V domains shown)
# VH: B2 VH with S84G, G99N, S101F, M105V
# VL: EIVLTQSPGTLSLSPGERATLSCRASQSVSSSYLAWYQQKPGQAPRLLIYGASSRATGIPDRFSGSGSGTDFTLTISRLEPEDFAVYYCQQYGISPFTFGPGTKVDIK
# notes: Tested here as non-clonal hybridoma supernatant from AlivaMab Mouse Kappa mice (detected with anti-mouse Fc and anti-human kappa)
# B7: 75110_01J09A (antibody, V domains shown)
# VH: EVQLVESGGGLVQPGGSLRLSCVASGFTFSSYWMSWVRQAPGKGLEWVANTKEDGSDKYYVDSVKGRFTICRDNAKNSLYLQMNSLRAEDTAVYYCAREGGQWLALDYWGQGTLVTVSS
# VL: DIQMTQSPSSVSASVGDRVTINCRASQGISSWLAWYQQKPGKAPNLLIFGASSLQSGVPSRFSGSGFGTDFSLTITTLQPEDFATYHCQQANSFPWTFGQGTKVEIK
# notes: as for B6
# B8: 75110_03C01A (antibody, V domains shown)
# VH: QVQLQQWGAGLLKPSETLSLTCAVYGGSFSGYYWSWIRQSPGKGLEWIGEINQSGSTNYNPSLKSRVTISVDTSKDQFSLKLSSVTAADTAVYYCARVINWFDSWGQGSLVTVSS
# VL: DIQMTQSPSSVSASVGDRVTITCRASQGISSWLAWYQQKPGNAPKLLIYDASSFQSGVPSRFSGSGSGTDFTLTISSLQTEDFATYYCQQANSFPYTFGQGTKLEIK
# notes: as for B6
# B9: 75110_04P08A (antibody, V domains shown)
# VH: B8 VH with F29L, K81R, S83T, A96T, I99L, S104P, Q107R, S109T
# VL: B8 VL with I21L, G28D, S31N, N42K, D50A, F54L
# notes: as for B6
# B10: 75110_05B13A (antibody, V domains shown)
# VH: QVLLEQWGAGLLKPSETLSLTCAVYGGSFSGYYWTWIRQPPGKGLEWIGEINHRGSTNYNPSLKSRVTISIDTSKNQFSLKVKSVTAADTAMYYCTRPDSNWFDPWGQGTLVTVSS
# VL: B8 VL with G28D, S31N, N42K, Y49F, D50A, F54L, T80P, Y96L, Q100G, L104V
# notes: as for B6
# B11: 75110_03L12A (antibody, V domains shown)
# VH: B8 VH with S40P, Q53H, K75E, D76N, K81T, S83I, A96V, V98L, S104P, S109T
# VL: B8 VL with G28D, S31N, N42K, Y49F, D50A, F54L, T80P, E81D, K103N, E105G
# notes: as for B6
# B12: 75110_02E08A (antibody, V domains shown)
# VH: QVQLQESGPGLVKPSETLSLTCTVSGGSISTYYWTWIRQPAGKGLEWIGRVYTSGDTNYNPSLKSRVAMSLDTSKNQFSLKLSSVTAADTAVYYCARDSGALYSWNYGDAFDIWGQGTMVTVSS
# VL: DIQMTQSPSAMSASVGDRVTITCRASQDISNYLAWFQQKPGKVPKRLIYAASSLQSGVPSRFSGSGSGTEFTLTISSLQPEDFATYYCLQHNSYPRTFGQGTKVEIK
# notes: as for B6
# Target: T1, Recombinant human CD4 (R&D Systems, Cat. 10327-CD) (human, UniProt P01730 26-390, limits assumed)
# T1 construct: Bought protein; also called huCD4
# Test: BLI (Octet Red 384), non-clonal supernatant captured on AMC sensors, 100 nM human CD4
# Method: (§1) Binding kinetics for nonclonal hybridoma supernatants were screened in high throughput against a single concentration of recombinant human CD4 protein (100 nM). Supernatants were diluted 1:3 in kinetics buffer. […] AMC sensors were used to capture hybridoma antibodies from supernatants.
# (§2) After completion of the kinetic characterization assays, data was analyzed in FORTE BIO analysis software v11. The Y-axis was aligned to the final 5 seconds of the baseline step, with inter-step alignment to the dissociation step. Savitzky-Golay Filtering was used to smooth the data. Kinetic curves were fit to both association and dissociation steps using a 1:1 stoichiometry model. A local fitting was used to calculate single point kinetics for each supernatant for human CD4.
row,Binder,Response
1,B1,0.15
2,B2,0.08
3,B3,0.04
4,B4,0.06
5,B5,0.03

# Target: T2, human CD4 on the surface of SKW3 cells or human PBMCs (human, UniProt P01730 26-458)
# T2 construct: whole, on cells; SKW3 CD4 knockout cells served as the negative cell line; also called hCD4; SKW3 WT
# Test: FACS binning on SKW3 cells; competitor OKT4a, anti-human A647 secondary (its signal read); background 5000, max binding 35000
# Method: (§3) αCD4 containing hybridoma supernatants were binned against three comparator antibodies by FACS using SKW3 cells, which endogenously express human CD4 protein. Briefly, SKW3 cells were incubated with saturated hybridoma supernatant for 30 minutes at 4° C.
row,Binder,OKT4a anti-hu A647 Secondary signal
1,B6,45900
2,B7,43700
3,B8,6980
4,B9,6060
5,B10,5340
6,B11,5720
7,B12,41500

# Target: T3, huCD4-HIS (human, UniProt P01730 26-390, limits assumed)
# T3 construct: not shown: HIS tag
# Test: ELISA binning; competitor ibalizumab; 100 ng/mL huCD4-HIS, anti-HIS HRP detection; background 45, max binding 3000000
row,Binder,Ibalizumab ELISA binning signal
1,B6,1.88e+06
2,B7,1.26e+06
3,B8,865000
4,B9,1.57e+06
5,B10,1.03e+06
6,B11,885000
7,B12,335000

# Target: T2, human CD4 on the surface of SKW3 cells …
# Test: FACS confirmation, supernatant on human PBMCs, anti-mouse Fc A647, CD4+ gate
# Method: (§4) FACS Confirmation screens were performed for primary screening positive hybridomas using human PBMCs in addition to SKW3/SKW3 CD4 KO cell lines. PBMCs were thawed and resuspended to 8E6/mL in FACS buffer. […] PBMCs were added to the 96 well plates (25 μL/well) and incubated at 4° C. for 30 minutes. […] Cells were washed twice before acquired by IQUE3 Flow Cytometer and analyzed with FORECYT software (Sartorius). Primary parameter used to assess confirmation was CD4 positive percent of viable cells. […] SKW3 gMFI binding was used as secondary parameter to assess confirmation.
row,Binder,"PBMCs, anti-mFc 647 CD4+ gate - RL1 Binding"
1,B6,283000
2,B7,321000
3,B8,266000
4,B9,260000
5,B10,228000
6,B11,229000
7,B12,317000

# Target: T2, human CD4 on the surface of SKW3 cells …
# Test: FACS confirmation, supernatant on human PBMCs, anti-mouse Fc A647
# Method: as §4
row,Binder,"PBMCs, anti-mFc 647 CD4+ Percent Bound of Viable [%]"
1,B6,31
2,B7,31
3,B8,28
4,B9,28
5,B10,27
6,B11,28
7,B12,31

# Target: T2, human CD4 on the surface of SKW3 cells …
# Test: FACS confirmation, supernatant on SKW3 WT cells, anti-mouse Fc A647; background gMFI 3300
# Method: as §4
row,Binder,"SKW3 WT anti-mFc 647, gMFI [gMFI]"
1,B6,27600
2,B7,32300
3,B8,18700
4,B9,25300
5,B10,26000
6,B11,27300
7,B12,30900

# Target: T2, human CD4 on the surface of SKW3 cells …
# Test: FACS primary screen, non-clonal hybridoma supernatant, SKW3 vs SKW3 CD4 KO cells, anti-mouse Fc A647
# Method: (§5) FACS cell binding. αCD4 antibody producing hybridomas were identified by cell surface CD4 binding using FACS. For primary screening SKW3 (human T-ALL) was used as the CD4 positive cell line and SKW3 CD4 knockout (KO) as the negative cell line, respectively. SKW3 KO cells were labeled with Tag-it Violet (BioLegend) at RT for 15 min. After removing extra dye by washing cells with FACS buffer (1% BSA/1 mM EDTA/0.05% NaN3 in PBS) equal number of SKW3 and labeled SKW3 CD4 KO cells were combined, washed, and resuspended in FACS buffer at 8E6 cells/6 mL. […] Cells (˜20K/15 μL/well) were added to the supernatant and incubated at 4° C. for 30 minutes. […] Cells were washed twice before acquired by IQUE3 Flow Cytometer and analyzed with FORECYT software (Sartorius). Positive wells were selected with the following criteria: Over 2-fold selective binding to SKW3 cell line relative to SKW3 CD4 KO with over 10% signal above background binding with anti-human Kappa. Hybridomas from primary screening positive wells were transferred to 96 well plates.
row,Binder,SKW3 WT vs KO anti-mFc-647 [ratio]
1,B6,3.4
2,B7,7.5
3,B8,8
4,B9,8.4
5,B10,3.1
6,B11,4.2
7,B12,8.4

# Target: T2, human CD4 on the surface of SKW3 cells …
# Test: FACS confirmation, supernatant on SKW3 WT cells, anti-human kappa FITC; background gMFI 2500
row,Binder,"SKW3 WT anti-hu Kappa FITC, gMFI [gMFI]"
1,B6,7020
2,B7,5930
3,B8,5920
4,B9,7420
5,B10,7310
6,B11,8010
7,B12,7260

# Target: T2, human CD4 on the surface of SKW3 cells …
# Test: FACS primary screen, non-clonal hybridoma supernatant, SKW3 vs SKW3 CD4 KO cells, anti-human kappa FITC
# Method: as §5
row,Binder,SKW3 WT vs KO anti-hKappa-FITC [ratio]
1,B6,2.1
2,B7,2.4
3,B8,2.4
4,B9,3
5,B10,2.4
6,B11,2.5
7,B12,3.1

# Target: T2, human CD4 on the surface of SKW3 cells …
# Test: FACS binning on SKW3 cells; competitor OKT4-Alexa Fluor 488 (its signal read); background 2163, max binding 8200
# Method: as §3
row,Binder,OKT4 A488 signal
1,B6,2850
2,B7,2140
3,B8,9510
4,B9,9760
5,B10,9670
6,B11,9750
7,B12,3320

# Target: T2, human CD4 on the surface of SKW3 cells …
# Test: FACS binning on SKW3 cells; competitor RPA-T4-PE-Dazzle 594 (its signal read); background 783, max binding 15000
# Method: as §3
row,Binder,RPA-T4-PE-Dazzle 594 signal
1,B6,15000
2,B7,14700
3,B8,19200
4,B9,19900
5,B10,20300
6,B11,20700
7,B12,13500

# Target: T1, Recombinant human CD4 (R&D Systems, …)
# Test: BLI (Octet Red 384), non-clonal supernatant captured on AMC sensors, 100 nM human CD4, 1:1 local fit;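 note: hybridoma antibodies from supernatants, one CD4 concentration giving single-point kinetics per supernatant, with curves fitted over both association and dissociation phases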
# Method: as §1, §2
Binder,Kd [nM],koff [s⁻¹],kon [M⁻¹ s⁻¹]
B1,0.95,7.1e-05,74000
B2,2.9,0.00065,230000
B3,5.3,0.00025,47000
B4,< 0.001,< 1e-07,37000
B5,340,0.00042,1200
